Laboratory results: patent US20230138315A1 (JIANGSU HENGRUI MEDICINE, published 2023)

T1: human ANGPTL3(17-170)-mFc (human)
T1 construct: also called fusion protein of the extracellular region of human ANGPTL3 (17-170) and the mouse IgG2aFc fragment
T1 chain: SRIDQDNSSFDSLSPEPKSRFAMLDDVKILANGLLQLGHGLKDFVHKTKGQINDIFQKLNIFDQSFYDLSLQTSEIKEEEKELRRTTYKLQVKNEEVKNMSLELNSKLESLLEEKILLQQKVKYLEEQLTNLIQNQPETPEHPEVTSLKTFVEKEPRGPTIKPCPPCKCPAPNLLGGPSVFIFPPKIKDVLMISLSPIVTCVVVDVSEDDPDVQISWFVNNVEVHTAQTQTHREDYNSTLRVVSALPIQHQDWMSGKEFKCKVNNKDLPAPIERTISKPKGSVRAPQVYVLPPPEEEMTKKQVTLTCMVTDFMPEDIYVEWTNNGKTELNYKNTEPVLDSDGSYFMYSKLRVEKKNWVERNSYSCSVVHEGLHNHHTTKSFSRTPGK

T2: rat ANGPTL3(17-455)-His (rat, biotin-labelled in the ELISA and HTRF assays (sites not given))
T2 chain: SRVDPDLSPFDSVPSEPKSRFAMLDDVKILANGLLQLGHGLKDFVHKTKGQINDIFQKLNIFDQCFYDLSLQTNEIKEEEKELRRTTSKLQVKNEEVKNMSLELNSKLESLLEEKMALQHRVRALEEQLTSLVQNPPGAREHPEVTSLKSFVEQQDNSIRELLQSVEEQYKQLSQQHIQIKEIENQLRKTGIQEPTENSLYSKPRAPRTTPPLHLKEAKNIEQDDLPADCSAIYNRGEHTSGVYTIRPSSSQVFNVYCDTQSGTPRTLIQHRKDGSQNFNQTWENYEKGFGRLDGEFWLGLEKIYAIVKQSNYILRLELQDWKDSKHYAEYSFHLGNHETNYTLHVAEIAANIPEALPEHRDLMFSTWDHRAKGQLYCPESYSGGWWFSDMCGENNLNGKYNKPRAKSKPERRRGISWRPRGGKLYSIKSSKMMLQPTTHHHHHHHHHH

T3: mouse ANGPTL3(17-455)-His (mouse, UniProt Q9R182 17-455, biotin-labelled in the ELISA and HTRF assays (sites not given))
T3 sequence: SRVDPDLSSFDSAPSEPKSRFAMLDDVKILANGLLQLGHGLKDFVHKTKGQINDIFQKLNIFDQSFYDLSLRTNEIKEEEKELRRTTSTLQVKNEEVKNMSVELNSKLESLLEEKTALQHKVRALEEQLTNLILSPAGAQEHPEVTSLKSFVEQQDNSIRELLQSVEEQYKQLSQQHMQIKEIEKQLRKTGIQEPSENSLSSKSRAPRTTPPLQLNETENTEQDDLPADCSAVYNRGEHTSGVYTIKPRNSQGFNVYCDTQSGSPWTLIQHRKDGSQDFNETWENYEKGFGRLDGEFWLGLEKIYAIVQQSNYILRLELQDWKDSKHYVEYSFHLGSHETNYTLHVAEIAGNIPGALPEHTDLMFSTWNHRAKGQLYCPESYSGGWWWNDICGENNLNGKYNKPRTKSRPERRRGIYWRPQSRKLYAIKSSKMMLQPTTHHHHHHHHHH

T4: cynomolgus monkey ANGPTL3(17-460)-His (cynomolgus monkey, UniProt Q9Y5C1 17-460 (human entry), biotin-labelled in the ELISA and HTRF assays (sites not given))
T4 chain: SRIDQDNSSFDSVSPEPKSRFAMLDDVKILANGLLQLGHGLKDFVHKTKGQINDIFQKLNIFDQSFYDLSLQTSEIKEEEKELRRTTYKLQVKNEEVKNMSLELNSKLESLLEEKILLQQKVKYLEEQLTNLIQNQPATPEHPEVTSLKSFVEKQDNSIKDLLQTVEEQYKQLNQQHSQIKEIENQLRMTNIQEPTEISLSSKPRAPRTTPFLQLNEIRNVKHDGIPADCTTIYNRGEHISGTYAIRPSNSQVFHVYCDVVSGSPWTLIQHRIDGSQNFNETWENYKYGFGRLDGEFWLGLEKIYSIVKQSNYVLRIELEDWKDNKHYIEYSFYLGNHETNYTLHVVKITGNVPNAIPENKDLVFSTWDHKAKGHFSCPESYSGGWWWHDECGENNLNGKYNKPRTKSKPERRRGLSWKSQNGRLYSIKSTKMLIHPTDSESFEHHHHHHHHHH


How the values were obtained:
[1] = biological target: T1, human ANGPTL3(17-170)-mFc; test: ELISA; human ANGPTL3(17-170)-mFc captured by coated goat anti-mouse IgG
Protocol: The binding activity of the anti-ANGPTL3 antibody to the ANGPTL3 antigen was tested by an ELISA assay. The ANGPTL3 protein (human ANGPTL3(17-170)-mFc) was immobilized on a 96-well microplate by binding to the goat anti-mouse IgG coated on the microplate, and the binding activity of the antibody to the ANGPTL3 was determined according to the intensity of the signal after the antibody was added.
Goat anti-mouse IgG (Sigma, M3534-1ML) was diluted to a concentration of 2 μg/mL with PBS buffer (Shanghai BasalMedia, B320, pH 7.4), added to a 96-well microplate (Corning, CLS3590-100EA) at 50 μL/well, and then incubated in an incubator at 37° C. for 3 h or incubated at 4° C. overnight (16-18 h). After the liquid was discarded, a PBS-diluted 5% skim milk (BD, 232100) blocking solution was added at 250 μL/well, and the mixture was incubated in an incubator at 37° C. for 3 h or incubated at 4° C. overnight (16-18 h) for blocking. After the blocking was finished, the blocking solution was discarded and the plate was washed 3 times with PBST buffer (pH 7.4 PBS containing 0.05% Tween-20), and then human ANGPTL3(17-170)-mFc (with sequence set forth in SEQ ID NO: 3) diluted to 0.5 μg/mL with a sample diluent (pH 7.4 PBS containing 1% BSA) was added at 50 μL/well. The mixture was incubated in an incubator at 37° C. for 2 h. After the incubation was finished, the reaction solution in the microplate was discarded. The plate was washed 3 times with PBST, and then a test antibody that was diluted with a sample diluent to different concentrations was added at 50 μL/well. The mixture was incubated in an incubator at 37° C. for 2 h. After the incubation was finished, the plate was washed 3 times with PBST, and a goat anti-human secondary antibody (Jackson Immuno Research, 109-035-003) that was diluted with the sample diluent was added at 50 μL/well. The mixture was incubated at 37° C. for 1 h.

rat ANGPTL3(17-455)-His = biological target: T2, rat ANGPTL3(17-455)-His; test: cell-based or functional assay
[2] = biological target: T3, mouse ANGPTL3(17-455)-His; test: cell-based or functional assay
[3] = biological target: T4, cynomolgus monkey ANGPTL3(17-460)-His; test: cell-based or functional assay

Binder | EC50 [1] | IC50 of blocking the inhibition of bovine LPL enzyme activity by ANGPTL3 (rat ANGPTL3(17-455)-His) | IC50 of blocking the inhibition of bovine LPL enzyme activity by ANGPTL3 [2] | IC50 of blocking the inhibition of bovine LPL enzyme activity by ANGPTL3 [3]
P8G (antibody, human IgG4 S228P, kappa, V domains shown, also called anti-ANGPTL3 antibody P8G; P8 (variable regions)) VH: QVQLVQSGAEVKKPGASVKVSCKASGYTFTSYDINWVRQAPGQGLEWVGLINPRDDSTSYAQKFQGRVTMTRDTSTSTMYMELSSLRSEDTAVYFCARDLGSIREVLYYGMDVWGQGTTVTVSS VL: not shown | 0.361 nM |  |  | 
P8BG (antibody, human IgG4 S228P, kappa, V domains shown, also called anti-ANGPTL3 antibody P8BG; P8B (variable regions)) VH: QVQLVQSGAEVKKPGASVKVSCKASGYTFTSYDINWVRQAPGQGLEWVGLINPREDSTSYAQKFQGRVTMTRDTSTSTMYMELSSLRSEDTAVYFCARDLGSIREVLYYGMDVWGQGTTVTVSS VL: not shown | 0.172 nM | 132 nM | 41.5 nM | 53.6 nM
P3G (antibody, human IgG4 S228P, kappa, V domains shown, also called anti-ANGPTL3 antibody P3G; P3 (variable regions)) VH: QVQLVQSGAEVKKPGASVKVSCKSSGYTFTDYYLHWLRQAPGQGPEWMGWISPNSGGTSYAQKFQGRVTMTRDTSISTAYMELSSLRSDDTAVYYCARDIATLGNFFTYGMDVWGQGTTVTVSS VL: DIQLTQSPSSLSASVGDRVTITCRASQGIRNDLGWYQQKPGKAPKLLIYAASSLQSGVPSRFSGSGSGTDFTLTISSLQPEDFATYYCQQSYSSWTFGQGTKVEIKR | 2.48 nM | 66.5 nM | 168 nM | 42.4 nM
